Target: the molecule itself
Experiment: native MS; rBos d 2 in 10 mM ammonium acetate, pH 6.9; protein (monomer) concentration 0-90 μM; monomer-dimer ratio from ion intensities, fit of free monomer against total protein; dimer to monomers

B1: recombinant bovine dander lipocalin allergen Bos d 2 (natural protein, bovine (cow), UniProt Q28133 17-172, looked up)
chain: QETPAEIDPSKIPGEWRIIYAAADNKDKIVEGGPLRNYYRRIECINDCESLSITFYLKDQGTCLLLTEVAKRQEGYVYVLEFYGTNTLEVIHVSENMLVTYVENYDGERITKMTEGLAKGTSFTPEELEKYQQLNSERGVPNENIENLIKTDNCPP
modifications: a substantial amount of the molecules contained a pyrrolidone carboxylic acid (PCA) formed by cyclization of the N-terminal glutamine; partly oxidized, probably at a single methionine; two disulfide bonds
notes: Bos d 2, bovine (cow) dander lipocalin allergen; also called rBos d 2
In the case of B1, the Kd is reported as 340 ± 20 µM and the “stoichiometry N” value is reported as 2.

Reference: paper PMC4561914 (Scientific Reports, 2015)
